In patent US20250218531A1 (ABSCI, published 2025):
Where a chain is given by its changes, count along the chain named.

B1: Trastuzumab HCDR3 variant ARWSSGYYYMDY (Fab, V domains shown)
VH: EVQLVESGGGLVQPGGSLRLSCAASGFNIKDTYIHWVRQAPGKGLEWVARIYPTNGYTRYADSVKGRFTISADTSKNTAYLQMNSLRAEDTAVYYCARWSSGYYYMDYWGQGTLVTVSS
VL: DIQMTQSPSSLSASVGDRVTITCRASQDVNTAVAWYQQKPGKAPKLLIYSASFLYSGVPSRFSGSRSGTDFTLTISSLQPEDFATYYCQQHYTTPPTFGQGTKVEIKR
B2: Trastuzumab HCDR3 variant ARWYYDYYYMDY (Fab, V domains shown)
VH: B1 VH with S100Y, S101Y, G102D
VL: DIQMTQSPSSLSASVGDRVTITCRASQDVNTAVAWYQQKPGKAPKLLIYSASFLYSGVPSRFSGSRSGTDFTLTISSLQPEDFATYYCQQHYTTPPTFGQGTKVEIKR
B3: Trastuzumab HCDR3 variant ARYGAYFYAMDA (Fab, V domains shown)
VH: B1 VH with W99Y, S100G, S101A, G102Y, Y103F, Y105A, Y108A
VL: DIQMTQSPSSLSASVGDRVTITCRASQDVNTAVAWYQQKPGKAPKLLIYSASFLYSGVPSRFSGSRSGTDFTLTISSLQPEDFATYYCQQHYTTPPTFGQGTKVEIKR
B4: Trastuzumab HCDR3 variant ARYGTIYFHFDY (Fab, V domains shown)
VH: B1 VH with W99Y, S100G, S101T, G102I, Y104F, Y105H, M106F
VL: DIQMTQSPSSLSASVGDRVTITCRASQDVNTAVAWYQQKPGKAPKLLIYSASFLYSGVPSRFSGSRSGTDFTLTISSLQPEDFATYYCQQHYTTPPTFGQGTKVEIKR
B5: Trastuzumab HCDR3 variant ARWYGAYYHMDY (Fab, V domains shown)
VH: B1 VH with S100Y, S101G, G102A, Y105H
VL: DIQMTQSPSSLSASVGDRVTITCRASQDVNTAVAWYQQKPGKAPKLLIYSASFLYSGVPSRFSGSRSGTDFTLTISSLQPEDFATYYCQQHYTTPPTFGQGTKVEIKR
B6: Trastuzumab HCDR3 variant ARYGLGYYYFDY (Fab, V domains shown)
VH: B1 VH with W99Y, S100G, S101L, M106F
VL: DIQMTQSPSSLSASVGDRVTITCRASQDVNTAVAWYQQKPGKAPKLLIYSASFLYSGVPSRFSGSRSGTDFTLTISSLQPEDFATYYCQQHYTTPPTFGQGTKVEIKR
B7: Trastuzumab HCDR3 variant ARYPGYYYYFDY (Fab, V domains shown)
VH: B1 VH with W99Y, S100P, S101G, G102Y, M106F
VL: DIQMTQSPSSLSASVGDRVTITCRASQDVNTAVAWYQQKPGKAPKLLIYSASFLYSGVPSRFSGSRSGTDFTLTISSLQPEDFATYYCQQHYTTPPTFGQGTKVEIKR
B8: Trastuzumab HCDR3 variant ARYGSYNYYFGD (Fab, V domains shown)
VH: B1 VH with W99Y, S100G, G102Y, Y103N, M106F, D107G, Y108D
VL: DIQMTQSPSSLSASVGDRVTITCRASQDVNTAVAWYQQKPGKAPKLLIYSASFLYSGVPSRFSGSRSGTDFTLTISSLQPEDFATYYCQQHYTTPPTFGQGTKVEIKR
B9: Trastuzumab HCDR3 variant ARYTFGAYYYSD (Fab, V domains shown)
VH: B1 VH with W99Y, S100T, S101F, Y103A, M106Y, D107S, Y108D
VL: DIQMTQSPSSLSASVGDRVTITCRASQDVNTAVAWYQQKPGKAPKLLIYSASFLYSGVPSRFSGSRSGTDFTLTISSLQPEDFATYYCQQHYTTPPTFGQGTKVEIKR
B10: Trastuzumab HCDR3 variant ARYGGGFYAMDY (Fab, V domains shown)
VH: B1 VH with W99Y, S100G, S101G, Y103F, Y105A
VL: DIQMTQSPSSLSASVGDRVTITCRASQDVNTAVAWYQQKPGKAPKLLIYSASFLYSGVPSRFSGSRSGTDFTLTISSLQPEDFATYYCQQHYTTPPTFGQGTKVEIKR
B11: Trastuzumab HCDR3 variant ARWYGYYYYFDV (Fab, V domains shown)
VH: B1 VH with S100Y, S101G, G102Y, M106F, Y108V
VL: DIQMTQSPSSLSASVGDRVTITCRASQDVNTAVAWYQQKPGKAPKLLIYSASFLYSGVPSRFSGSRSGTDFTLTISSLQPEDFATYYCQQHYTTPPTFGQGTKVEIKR
B12: Trastuzumab HCDR3 variant ARYGSYFYYMDY (Fab, V domains shown)
VH: B1 VH with W99Y, S100G, G102Y, Y103F
VL: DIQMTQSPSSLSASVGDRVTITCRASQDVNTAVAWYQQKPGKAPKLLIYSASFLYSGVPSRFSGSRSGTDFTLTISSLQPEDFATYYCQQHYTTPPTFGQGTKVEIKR
B13: Trastuzumab HCDR3 variant ARYPSVVYAFGI (Fab, V domains shown)
VH: B1 VH with W99Y, S100P, G102V, Y103V, Y105A, M106F, D107G, Y108I
VL: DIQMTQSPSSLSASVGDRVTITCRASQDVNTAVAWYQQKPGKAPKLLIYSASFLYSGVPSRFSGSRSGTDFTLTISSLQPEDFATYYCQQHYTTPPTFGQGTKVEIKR
B14: Trastuzumab HCDR3 variant ARYFGGSYAYVY (Fab, V domains shown)
VH: B1 VH with W99Y, S100F, S101G, Y103S, Y105A, M106Y, D107V
VL: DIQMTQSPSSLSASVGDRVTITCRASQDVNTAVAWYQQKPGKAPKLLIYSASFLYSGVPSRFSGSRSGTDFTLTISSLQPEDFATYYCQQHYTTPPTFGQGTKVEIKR
B15: Trastuzumab HCDR3 variant ARYGLGYYYMDY (Fab, V domains shown)
VH: B1 VH with W99Y, S100G, S101L
VL: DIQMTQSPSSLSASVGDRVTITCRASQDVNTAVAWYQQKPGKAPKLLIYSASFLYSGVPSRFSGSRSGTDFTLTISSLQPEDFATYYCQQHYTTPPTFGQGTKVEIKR
B16: Trastuzumab HCDR3 variant ARYGGFYYYFDY (Fab, V domains shown)
VH: B1 VH with W99Y, S100G, S101G, G102F, M106F
VL: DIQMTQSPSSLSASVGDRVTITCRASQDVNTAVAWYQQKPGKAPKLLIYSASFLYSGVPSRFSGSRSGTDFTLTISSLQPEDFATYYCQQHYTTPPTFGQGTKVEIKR
B17: Trastuzumab HCDR3 variant ARYGYGYYYMDY (Fab, V domains shown)
VH: B1 VH with W99Y, S100G, S101Y
VL: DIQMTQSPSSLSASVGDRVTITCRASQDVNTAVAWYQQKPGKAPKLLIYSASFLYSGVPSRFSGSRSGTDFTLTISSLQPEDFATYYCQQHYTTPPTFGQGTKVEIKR
B18: Trastuzumab HCDR3 variant ARYGGGYWYFDY (Fab, V domains shown)
VH: B1 VH with W99Y, S100G, S101G, Y104W, M106F
VL: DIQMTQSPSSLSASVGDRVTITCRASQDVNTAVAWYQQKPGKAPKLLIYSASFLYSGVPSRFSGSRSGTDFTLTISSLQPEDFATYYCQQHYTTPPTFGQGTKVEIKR
B19: Trastuzumab HCDR3 variant ARYGYYGYYMDY (Fab, V domains shown)
VH: B1 VH with W99Y, S100G, S101Y, G102Y, Y103G
VL: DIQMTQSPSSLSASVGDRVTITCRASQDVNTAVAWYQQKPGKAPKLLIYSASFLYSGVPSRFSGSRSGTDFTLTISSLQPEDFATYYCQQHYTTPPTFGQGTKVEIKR
B20: Trastuzumab HCDR3 variant ARYPPGYYIMDF (Fab, V domains shown)
VH: B1 VH with W99Y, S100P, S101P, Y105I, Y108F
VL: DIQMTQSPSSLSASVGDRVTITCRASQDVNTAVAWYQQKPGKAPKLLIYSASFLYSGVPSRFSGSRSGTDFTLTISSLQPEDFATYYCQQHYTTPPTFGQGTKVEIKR
B21: Trastuzumab HCDR3 variant ARYGYDGYYFAY (Fab, V domains shown)
VH: B1 VH with W99Y, S100G, S101Y, G102D, Y103G, M106F, D107A
VL: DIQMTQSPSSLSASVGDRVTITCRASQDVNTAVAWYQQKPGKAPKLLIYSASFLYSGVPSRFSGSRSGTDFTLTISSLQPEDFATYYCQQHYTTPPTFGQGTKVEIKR
B22: Trastuzumab HCDR3 variant ARYGRGYYYFDY (Fab, V domains shown)
VH: B1 VH with W99Y, S100G, S101R, M106F
VL: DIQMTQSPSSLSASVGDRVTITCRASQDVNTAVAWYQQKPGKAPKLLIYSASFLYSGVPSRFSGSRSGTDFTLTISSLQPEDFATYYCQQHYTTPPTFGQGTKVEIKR
B23: Trastuzumab HCDR3 variant ARYGYYSYAMDY (Fab, V domains shown)
VH: B1 VH with W99Y, S100G, S101Y, G102Y, Y103S, Y105A
VL: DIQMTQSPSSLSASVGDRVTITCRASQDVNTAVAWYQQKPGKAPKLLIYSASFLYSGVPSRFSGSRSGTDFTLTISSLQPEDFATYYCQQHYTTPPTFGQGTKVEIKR
B24: Trastuzumab HCDR3 variant ARWSYGYYNFDY (Fab, V domains shown)
VH: B1 VH with S101Y, Y105N, M106F
VL: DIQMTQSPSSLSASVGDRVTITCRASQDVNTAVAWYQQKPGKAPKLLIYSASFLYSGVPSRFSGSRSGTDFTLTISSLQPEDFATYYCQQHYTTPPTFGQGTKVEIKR
B25: Trastuzumab HCDR3 variant ARYGWGYYYFDY (Fab, V domains shown)
VH: B1 VH with W99Y, S100G, S101W, M106F
VL: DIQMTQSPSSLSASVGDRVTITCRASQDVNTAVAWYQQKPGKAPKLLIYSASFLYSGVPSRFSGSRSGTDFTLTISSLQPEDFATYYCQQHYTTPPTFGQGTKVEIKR
B26: Trastuzumab HCDR3 variant ARYRHWYYDYDY (Fab, V domains shown)
VH: B1 VH with W99Y, S100R, S101H, G102W, Y105D, M106Y
VL: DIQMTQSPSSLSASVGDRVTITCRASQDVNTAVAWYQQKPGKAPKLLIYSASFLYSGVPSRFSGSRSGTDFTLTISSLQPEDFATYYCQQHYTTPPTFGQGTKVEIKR
B27: Trastuzumab HCDR3 variant ARYGYYLYAMDY (Fab, V domains shown)
VH: B1 VH with W99Y, S100G, S101Y, G102Y, Y103L, Y105A
VL: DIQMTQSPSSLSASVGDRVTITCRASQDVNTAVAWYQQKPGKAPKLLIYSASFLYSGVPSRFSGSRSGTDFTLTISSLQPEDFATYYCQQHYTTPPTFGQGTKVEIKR
B28: Trastuzumab HCDR3 variant ARWYGGYYHHDY (Fab, V domains shown)
VH: B1 VH with S100Y, S101G, Y105H, M106H
VL: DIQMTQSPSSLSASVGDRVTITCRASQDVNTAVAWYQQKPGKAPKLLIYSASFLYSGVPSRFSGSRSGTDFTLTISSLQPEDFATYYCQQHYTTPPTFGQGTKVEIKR
B29: Trastuzumab HCDR3 variant ARWYGGYYMYDY (Fab, V domains shown)
VH: B1 VH with S100Y, S101G, Y105M, M106Y
VL: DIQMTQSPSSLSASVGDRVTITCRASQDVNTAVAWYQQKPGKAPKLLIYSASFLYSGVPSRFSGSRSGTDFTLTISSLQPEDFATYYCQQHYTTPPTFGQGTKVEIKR
B30: Trastuzumab HCDR3 variant ARYGYGYFYMDY (Fab, V domains shown)
VH: B1 VH with W99Y, S100G, S101Y, Y104F
VL: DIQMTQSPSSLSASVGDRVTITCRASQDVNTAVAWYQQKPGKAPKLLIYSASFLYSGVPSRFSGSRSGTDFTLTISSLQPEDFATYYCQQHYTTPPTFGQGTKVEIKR
B31: Trastuzumab HCDR3 variant ARYDYGYYIYVS (Fab, V domains shown)
VH: B1 VH with W99Y, S100D, S101Y, Y105I, M106Y, D107V, Y108S
VL: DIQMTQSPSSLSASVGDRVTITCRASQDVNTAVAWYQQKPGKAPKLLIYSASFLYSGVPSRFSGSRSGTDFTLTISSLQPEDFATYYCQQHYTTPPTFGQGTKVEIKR
B32: Trastuzumab HCDR3 variant ARYGVVRYDFAY (Fab, V domains shown)
VH: B1 VH with W99Y, S100G, S101V, G102V, Y103R, Y105D, M106F, D107A
VL: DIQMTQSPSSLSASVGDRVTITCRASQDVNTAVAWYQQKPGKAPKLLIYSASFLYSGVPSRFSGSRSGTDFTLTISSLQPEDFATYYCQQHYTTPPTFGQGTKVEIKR
B33: Trastuzumab HCDR3 variant ARYGLYYYYFDY (Fab, V domains shown)
VH: B1 VH with W99Y, S100G, S101L, G102Y, M106F
VL: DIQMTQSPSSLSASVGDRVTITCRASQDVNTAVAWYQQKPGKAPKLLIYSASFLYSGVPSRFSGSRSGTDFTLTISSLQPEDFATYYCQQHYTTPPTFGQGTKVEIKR
B34: Trastuzumab HCDR3 variant ARYGGGYYYYDY (Fab, V domains shown)
VH: B1 VH with W99Y, S100G, S101G, M106Y
VL: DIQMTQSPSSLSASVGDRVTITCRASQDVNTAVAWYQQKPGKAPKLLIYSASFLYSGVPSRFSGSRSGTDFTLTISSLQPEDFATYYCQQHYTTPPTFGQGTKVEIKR
B35: Trastuzumab HCDR3 variant ARYGTGNYAMDY (Fab, V domains shown)
VH: B1 VH with W99Y, S100G, S101T, Y103N, Y105A
VL: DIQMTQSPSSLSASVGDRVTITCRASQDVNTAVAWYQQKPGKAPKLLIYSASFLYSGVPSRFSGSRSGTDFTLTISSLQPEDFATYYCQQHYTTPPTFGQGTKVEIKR
B36: Trastuzumab HCDR3 variant ARYDIGYYDMDK (Fab, V domains shown)
VH: B1 VH with W99Y, S100D, S101I, Y105D, Y108K
VL: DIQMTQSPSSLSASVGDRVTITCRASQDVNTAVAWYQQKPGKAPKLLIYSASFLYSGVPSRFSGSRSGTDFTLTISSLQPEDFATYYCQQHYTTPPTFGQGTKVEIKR
B37: Trastuzumab HCDR3 variant ARYGGYYYYMDY (Fab, V domains shown)
VH: B1 VH with W99Y, S100G, S101G, G102Y
VL: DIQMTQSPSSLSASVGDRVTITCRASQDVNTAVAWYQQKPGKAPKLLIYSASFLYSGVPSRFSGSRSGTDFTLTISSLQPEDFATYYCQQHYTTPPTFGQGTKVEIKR
B38: Trastuzumab HCDR3 variant ARYWMGVYEFDY (Fab, V domains shown)
VH: B1 VH with W99Y, S100W, S101M, Y103V, Y105E, M106F
VL: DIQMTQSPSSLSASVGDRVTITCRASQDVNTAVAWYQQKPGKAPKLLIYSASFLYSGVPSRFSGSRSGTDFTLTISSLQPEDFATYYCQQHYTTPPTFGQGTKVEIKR
B39: Trastuzumab HCDR3 variant ARYGYGYYVMDY (Fab, V domains shown)
VH: B1 VH with W99Y, S100G, S101Y, Y105V
VL: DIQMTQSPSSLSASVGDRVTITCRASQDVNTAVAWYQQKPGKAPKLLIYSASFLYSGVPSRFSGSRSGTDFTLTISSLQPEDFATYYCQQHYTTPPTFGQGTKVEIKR

Target: T1, HER2 (human epidermal growth factor receptor 2) (human, UniProt P04626 23-629)
T1 construct: also called Antigen: HER2
Assay: SPR

| Binder | Kd | log(KD (M)) |
| --- | --- | --- |
| B1 | 12 nM | -7.92 |
| B2 | 13.9 nM | -7.86 |
| B3 | 18.6 nM | -7.73 |
| B4 | 23.9 nM | -7.62 |
| B5 | 5.59 nM | -8.25 |
| B6 | 15.7 nM | -7.8 |
| B7 | 17.9 nM | -7.75 |
| B8 | 13.6 nM | -7.87 |
| B9 | 10.9 nM | -7.96 |
| B10 | 22.4 nM | -7.65 |
| B11 | 11.2 nM | -7.95 |
| B12 | 6.53 nM | -8.19 |
| B13 | 22.3 nM | -7.65 |
| B14 | 11.2 nM | -7.95 |
| B15 | 10.5 nM | -7.98 |
| B16 | 6.17 nM | -8.21 |
| B17 | 12.2 nM | -7.91 |
| B18 | 23.4 nM | -7.63 |
| B19 | 23.3 nM | -7.63 |
| B20 | 23.5 nM | -7.63 |

| Binder | Kd | log(KD (M)) |
| --- | --- | --- |
| B21 | 22.2 nM | -7.65 |
| B22 | 26.8 nM | -7.57 |
| B23 | 10.2 nM | -7.99 |
| B24 | 1.98 nM | -8.7 |
| B25 | 14.7 nM | -7.83 |
| B26 | 6.15 nM | -8.21 |
| B27 | 10.1 nM | -7.99 |
| B28 | 8.57 nM | -8.07 |
| B29 | 19.1 nM | -7.72 |
| B30 | 21.9 nM | -7.66 |
| B31 | 9.49 nM | -8.02 |
| B32 | 20.5 nM | -7.69 |
| B33 | 15.5 nM | -7.81 |
| B34 | 9.11 nM | -8.04 |
| B35 | 26.3 nM | -7.58 |
| B36 | 27 nM | -7.57 |
| B37 | 16.3 nM | -7.79 |
| B38 | 21.7 nM | -7.66 |
| B39 | 8.65 nM | -8.06 |
